In US20240150465A1 (Chugai, published 2024):

Columns and labels:
[1] = biological target: T1, human DLL3 (delta-like protein 3 isoform 1 precursor) expressed on Ba/F3 cells (human, UniProt Q9NYJ7 27-618); experiment: cell ELISA, B-cell culture supernatants on immobilized hDLL3/BaF_H3 cells
T1 construct: Full-length cDNA stably transfected into mouse Ba/F3 cells; also called human DLL3 expressing Ba/F3
T1 sequence: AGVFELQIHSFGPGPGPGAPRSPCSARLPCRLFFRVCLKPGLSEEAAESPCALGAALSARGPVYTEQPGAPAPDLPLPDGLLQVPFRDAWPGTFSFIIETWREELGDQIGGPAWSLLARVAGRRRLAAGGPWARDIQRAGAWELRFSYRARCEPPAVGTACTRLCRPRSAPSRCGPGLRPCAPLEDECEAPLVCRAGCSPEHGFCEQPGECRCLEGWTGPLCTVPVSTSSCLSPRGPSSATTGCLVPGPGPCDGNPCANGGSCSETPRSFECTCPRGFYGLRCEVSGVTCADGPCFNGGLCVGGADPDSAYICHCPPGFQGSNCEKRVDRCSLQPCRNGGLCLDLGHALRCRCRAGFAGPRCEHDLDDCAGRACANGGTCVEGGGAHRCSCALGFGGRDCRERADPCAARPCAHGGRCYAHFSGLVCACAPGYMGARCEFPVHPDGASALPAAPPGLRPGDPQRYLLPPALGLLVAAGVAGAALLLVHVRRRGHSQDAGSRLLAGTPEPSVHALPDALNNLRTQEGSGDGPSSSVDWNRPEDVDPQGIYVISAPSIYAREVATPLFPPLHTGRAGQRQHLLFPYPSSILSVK
Experimental: ELISA screening was conducted to test specificity of antibodies in B-cell culture supernatants. Human DLL3 expressing Ba/F3 (hDLL3/BaF_H3 established in Example 2, 2.5×10⁴ cells) were immobilized onto a Nunc MaxiSorp 384-well plate (Sigma-Aldrich) which was pre-coated with BSA (Sigma-Aldrich) and SUNBRIGHT (registered trademark) OE-080CS as Biocompatible Anchor for cell Membrane (YUKA SANGYO). Immobilized cells were incubated with 20 microliters (micro L) of B-cell culture supernatants for 1 hour. The supernatants were aspirated and the cells were washed with HEPES buffer (0.02 M HEPES, 5 mM KCl, 4 mM NaHCO₃, 138 mM NaCl, 2 mM CaCl₂, 5 mM Glucose, 0.4 mM KH₂PO₄, 0.34 mM Na₂HPO₄° and 0.1% BSA). After washing, goat anti-rabbit IgG polyclonal antibody HRP conjugate (BETHYL, A120-111P) was added. The cells were further incubated on ice for 1 hour and washed. Then, ABTS Microwell Peroxidase Substrate (Kirkegaard & Perry Laboratories) was added and OD405 was analyzed with […]ax 384 (Molecular Devices).

del0 = biological target: T2, del0; experiment: ELISA with the human DLL3 ECD fragment proteins del0 to del6, OD405
T2 construct: also called human DLL3 ECD with Flag-tag on C-terminus
T2 chain: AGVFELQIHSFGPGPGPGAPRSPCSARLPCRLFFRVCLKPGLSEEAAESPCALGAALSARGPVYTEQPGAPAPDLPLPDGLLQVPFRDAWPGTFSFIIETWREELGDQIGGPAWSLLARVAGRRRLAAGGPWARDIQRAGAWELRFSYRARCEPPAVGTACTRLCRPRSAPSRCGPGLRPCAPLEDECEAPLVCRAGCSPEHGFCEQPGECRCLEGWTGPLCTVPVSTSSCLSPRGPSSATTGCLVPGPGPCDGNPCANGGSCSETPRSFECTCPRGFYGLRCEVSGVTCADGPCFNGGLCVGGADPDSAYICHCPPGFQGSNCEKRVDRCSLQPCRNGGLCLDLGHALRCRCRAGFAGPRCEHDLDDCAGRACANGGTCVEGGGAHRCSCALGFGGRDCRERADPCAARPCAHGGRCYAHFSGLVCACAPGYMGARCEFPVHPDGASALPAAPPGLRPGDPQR
Experimental: (§1) Nunc MaxiSorp 384-well plates (Sigma-Aldrich) were coated with each of the human DLL3 ECD fragment proteins del0 to del6, and blocked with 20% Blocking One (NACALAI TESQUE). Blocking buffer was removed and recombinant anti-DLL3 antibodies were incubated with the immobilized proteins for 1 hour at room temperature and washed with HEPES buffer (0.05% Tween20, HEPES). Monoclonal ANTI-FLAG M2-Peroxidase, Clone M2 (Sigma-Aldrich) was then added and incubated for 1 hour at room temperature and washed. Then, ABTS Microwell Peroxidase Substrate (Kirkegaard & Perry Laboratories) was added and OD405 was analyzed with […]ax 384 (Molecular Devices).

[2] = biological target: T3, human DLL3 on the surface of cancer cell lines SK-MEL 30, NCI-H1436 and NCI-H2227 (human, UniProt Q9NYJ7 27-618); experiment: flow cytometry on SK-MEL-30 cells, 20 micro g/mL antibody, FITC-labeled goat anti-rabbit IgG [A]
T3 construct: whole, on cells; Endogenous protein of human cancer cell lines
T3 sequence (looked up): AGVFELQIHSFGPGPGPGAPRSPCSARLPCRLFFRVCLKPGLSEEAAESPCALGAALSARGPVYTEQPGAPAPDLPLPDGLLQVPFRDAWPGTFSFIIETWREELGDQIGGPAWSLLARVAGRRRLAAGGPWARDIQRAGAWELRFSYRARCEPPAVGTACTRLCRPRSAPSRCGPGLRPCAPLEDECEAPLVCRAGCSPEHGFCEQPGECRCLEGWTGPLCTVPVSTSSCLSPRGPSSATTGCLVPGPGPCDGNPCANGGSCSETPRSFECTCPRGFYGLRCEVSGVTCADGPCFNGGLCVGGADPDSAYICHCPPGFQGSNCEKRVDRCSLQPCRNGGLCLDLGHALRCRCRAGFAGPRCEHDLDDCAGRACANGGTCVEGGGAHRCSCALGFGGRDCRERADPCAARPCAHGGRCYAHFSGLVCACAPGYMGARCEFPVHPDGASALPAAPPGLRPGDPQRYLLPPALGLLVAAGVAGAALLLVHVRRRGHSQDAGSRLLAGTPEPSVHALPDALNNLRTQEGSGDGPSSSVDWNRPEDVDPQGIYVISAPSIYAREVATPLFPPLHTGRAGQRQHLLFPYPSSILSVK
Experimental: The cancer cells (5×10⁵ cells) were washed with 0.5% BSA-supplemented CellWASH (BD Bioscience) (hereinafter referred to as FACS/PBS). Bivalent anti-DLL3 antibody (DLA0316-rbIgG) or the control antibody (rabbit IgG) was added at a final concentration of 20 micro g/mL in a 50 micro L solution. After being left to stand at 4 degrees C. for 30 to 60 minutes, the cells were washed with FACS/PBS, and an FITC-labeled goat anti-rabbit IgG antibody diluted 50-fold with FACS/PBS was added to the cells. After being left to stand at 4 degrees C. for further 30 minutes, the cells were washed with FACS/PBS, and analyzed by FACS Verse (Becton Dickinson).

del5 = biological target: T4, del5; experiment: ELISA with the human DLL3 ECD fragment proteins del0 to del6, OD405
T4 construct: also called truncated human DLL3 ECD variant with Flag-tag on C-terminus
T4 chain: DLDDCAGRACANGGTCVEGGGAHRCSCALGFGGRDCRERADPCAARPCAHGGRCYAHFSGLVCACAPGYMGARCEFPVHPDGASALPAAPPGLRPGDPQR
Experimental: as §1

del6 = biological target: T5, del6; experiment: as above
T5 construct: also called truncated human DLL3 ECD variant with Flag-tag on C-terminus
T5 chain: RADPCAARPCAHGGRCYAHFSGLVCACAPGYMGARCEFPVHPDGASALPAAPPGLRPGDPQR
Experimental: as §1

B1: DLA0316 (antibody, human IgG1, V domains shown)
VH: QEQLVESGGGLVQPGGSLKLSCKVSGFDFSNYGVSWVRQAPGKGLEWIGYIDPAFGRTYYASWVNGRFTISSHNAQNTLYLQLNSLTAADTATYFCVRVALVVAGVAYYGMDVWGPGTLVTVSS
VL: DVVMTQTPASVEAAVGGTVTINCQASQNIYSYLSWYQQKPGQPPKLLIYRTSTLASGVPSRFKGSGSGTQFTLTISDLECADAATYYCQSYYYSSGSSYGAFAFGGGTEVVVK
notes: Rabbit B-cell clone, screened as B-cell culture supernatant
**Q.** What does the source list for B1?
**A.** binding result [1]: binds; binding result (del0): binds

B2: DLA0316-rbIgG (antibody, V domains shown)
VH: QEQLVESGGGLVQPGGSLKLSCKVSGFDFSNYGVSWVRQAPGKGLEWIGYIDPAFGRTYYASWVNGRFTISSHNAQNTLYLQLNSLTAADTATYFCVRVALVVAGVAYYGMDVWGPGTLVTVSS
VL: DVVMTQTPASVEAAVGGTVTINCQASQNIYSYLSWYQQKPGQPPKLLIYRTSTLASGVPSRFKGSGSGTQFTLTISDLECADAATYYCQSYYYSSGSSYGAFAFGGGTEVVVK
notes: also called bivalent DLA0316; Bivalent anti-DLL3 antibody
**Q.** Does B2 bind [2]?
**A.** binds

B3: DLA0580 (antibody, human IgG1, V domains shown)
VH: QEQLVESGGGLVQPGASLTLTCKASGFDFTSNAMCWVRQAPGKGPEWIACIYNDDGSAYSASWAKGRFTVSKTSSTAVTLQVTGLTAADTATYFCARSPYYTYGGAPSAYASGYFNLWGPGTLVTVSS
VL: DIVMTQTPASVEAAVGGTVTIKCQASENIYNSLAWYQQKPGQPPKLLMHDASVLTSGVPSRFSGSGYGTEFTLTISDLECADAATYYCQSDYYSTGGSYGFAFGGGTEVVVK
notes: as for B1
**Q.** Which results are given for B3?
**A.** binding result [1]: binds; binding result (del0): binds; binding result (del5): no binding; binding result (del6): no binding

B4: DLA0841 (antibody, human IgG1, V domains shown)
VH: QEQLVESGGGLVQPEGSLTLTCTASGFSFSSSYDMCWVRQAPGKGPEWIACIYTGDGSTDYASWAKGRFTVSKASSTTVTLQMTSLAVADTATYFCARNSGYGYFGLWGPGTLVTVSS
VL: QVLTQTPSPVSAAVGGTVTISCQSTESVYGSDWLSWYQQKPGQPPKVLIYQASNLEIGVPSRFKGSGSGTQFTLTISGAQCDDAATYYCQGYYSGYIYAFGGGTEVVVK
notes: as for B1
**Q.** Does B4 bind [1]?
**A.** binds

**Q.** Does B4 bind (del0)?
**A.** binds

B5: DLA0641 (antibody, human IgG1, V domains shown)
VH: QEQLVESGGGLVQPGASLTLTCKASGFSFNTSYCPCWVRQVPGKGPEWIACIDAGYSGATWYANWAKGRFTISKTSSTTVTLQMTSLTGADTATYFCVRCDAAGSGAFNLWGPGTLVTVSS
VL: AYDMTQTPASVEVPVGGTVTIKCQASQSIYSYLSWYQQKPGQPPKLLIYEASKLTSGVPSRFSGSGSGTEFTLTISGVQCDDAATYYCQQGSGYMDVDNVFGGGTEVVVK
notes: as for B1
**Q.** Which results are given for B5?
**A.** binding result [1]: binds; binding result (del0): binds

B6: DLA0106 (antibody, human IgG1, V domains shown)
VH: QSVEESGGRLVTPGTPLTLTCTVSGIDLSSYAMSWVRQAPGKGLEWIGIISNSGSGFYANWAKGRFTISKTSSTTVDVKISSPTTEDTATYFCARVFDADSSGYYYYGMDPWGPGTLVTVSS
VL: DVVMTQTPSSVSEPVGGTVTIKCQASEDIESYLAWYQQKPGQPPKLLIYAASTLASGVSSRFRGSGSGTEYTLTISDLECADAATYYCQSTYYDSSGVDWAFGGGTEVVVK
notes: as for B1
**Q.** Does B6 bind [1]?
**A.** binds

**Q.** Does B6 bind (del0)?
**A.** binds

**Q.** Does B6 bind (del5)?
**A.** no binding

**Q.** Does B6 bind (del6)?
**A.** no binding

B7: DLA0126 (antibody, human IgG1, V domains shown)
VH: QSVEESGGRLVTPGTPLTLTCTVSGFSLSRYAMSWVRQAPGKGLEWIGIITGGGDPYYASWAKGRFTISKTSTTMDLKITSPTTEDTATYFCARMIGSEYASSSEYYDAFDPWGPGTLVTVSS
VL: ALVMTQTPSSVSAAVGGTVTINCQASQNIYSNLAWYQQKPGQRPKLLIYGASNLESGVPSRFKGSGSGTEYTLTISDLECDDAAIYYCQSAYYTTSVDVLYPFGGGTEVVVK
notes: as for B1
**Q.** Does B7 bind [1]?
**A.** binds

**Q.** Does B7 bind (del0)?
**A.** binds

**Q.** Does B7 bind (del5)?
**A.** no binding

**Q.** Does B7 bind (del6)?
**A.** no binding

B8: DLA0769 (antibody, human IgG1, V domains shown)
VH: QEQLVESGGGLVQPEGSLTLTCTASGFSFSSSGYMCWVRQAPGKGLEWIACISGGSSGDTDYANWAKGRFSISKTSSTTVTLQMTSLTVADTATYFCARDVYIDSTIFNFNLWGPGTLVTVSS
VL: QVLTQTPSPVSAAVGGTVTISCQASQSVYNNNNLAWYQQKPGQPPKLLIYAASSLASGVPSRFKGSGAGTQFTLTISDLECDDAATYYCQGTYYSSGWYSTFGGGTEVVVK
notes: as for B1
**Q.** Does B8 bind [1]?
**A.** binds

**Q.** Does B8 bind (del0)?
**A.** binds
